# Measured values as given in PMC3274521, “Effects of a Non-Conservative Sequence on the Properties of β-glucuronidase from Aspergillus terreus Li-20” (PLoS ONE, 2012).
# Tested on: CC1(C)[C@@H](O[C@H]2O[C@H](C(=O)O)[C@@H](O)[C@H](O)[C@H]2O[C@@H]2O[C@H](C(=O)O)[C@@H](O)[C@H](O)[C@H]2O)CC[C@]2(C)[C@H]3C(=O)C=C4[C@@H]5C[C@@](C)(C(=O)O)CC[C@]5(C)CC[C@@]4(C)[C@]3(C)CC[C@@H]12
# Test: purified protein
# Details: GL 0.375 to 4 mM, assay pH and temperature not stated for kinetics (optimum pH 6.6, 55 °C)
substance,measurement,value
AtGUS-E (AtGUS) (Aspergillus terreus NIH2624),Km,12.9 mM
same,Vmax,1.84 µmol/min/mg
same,kcat,29 s⁻¹
same,kcat/Km,2240 M⁻¹ s⁻¹
